Substitutions are numbered along the chain they refer to. Names and notes keep the numbering of the source. Each block holds one molecule with its values, some of them ahead of it.
Tests used:
FePYR1-ABA-AtHAB1 = target: T1, FePYR1-ABA-AtHAB1 (Festuca elata, UniProt A0A2D1UXN2); assay: AlphaScreen, ABA-dependent receptor-PP2C interaction; type: binding
T1 construct: H6-SUMO-FePYR1 and biotin-MBP-AtHAB1 (172-511), E. coli; tags kept for AlphaScreen; with Protein phosphatase 2C 16 (HAB1, Arabidopsis thaliana)
T1 sequence (A0A2D1UXN2 1-212): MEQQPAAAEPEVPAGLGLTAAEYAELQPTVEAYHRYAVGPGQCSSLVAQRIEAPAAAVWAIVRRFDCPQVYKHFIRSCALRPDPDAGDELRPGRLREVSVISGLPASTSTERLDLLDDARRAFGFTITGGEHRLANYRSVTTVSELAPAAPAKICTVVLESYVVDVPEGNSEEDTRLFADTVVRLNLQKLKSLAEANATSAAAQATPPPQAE
T1 sequence (Q9CAJ0 172-511 partner): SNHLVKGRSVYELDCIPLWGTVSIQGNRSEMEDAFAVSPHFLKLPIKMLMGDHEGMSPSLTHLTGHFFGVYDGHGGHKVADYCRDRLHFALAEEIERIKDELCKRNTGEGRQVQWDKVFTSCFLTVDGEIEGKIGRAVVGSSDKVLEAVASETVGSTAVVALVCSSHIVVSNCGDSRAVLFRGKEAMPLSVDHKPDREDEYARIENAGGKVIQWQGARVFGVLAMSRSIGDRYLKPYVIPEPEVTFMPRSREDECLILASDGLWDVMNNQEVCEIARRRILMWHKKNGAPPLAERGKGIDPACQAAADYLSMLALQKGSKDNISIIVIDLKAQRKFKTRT
Excerpt: AlphaScreen, ABA-dependent receptor-PP2C interaction on FePYR1-ABA-AtHAB1 | EC50 values of FePYL1, FePYR1, ZjPYL2 in interacting with AtHAB1

AtPYR1 = target: T2, AtPYR1 (Arabidopsis thaliana, UniProt O49686); assay: ABA binding assay in supplement (method not given); conditions: affinity reported comparable to FePYR1
T2 construct: gene PYR1; homodimer
T2 sequence (O49686 9-182): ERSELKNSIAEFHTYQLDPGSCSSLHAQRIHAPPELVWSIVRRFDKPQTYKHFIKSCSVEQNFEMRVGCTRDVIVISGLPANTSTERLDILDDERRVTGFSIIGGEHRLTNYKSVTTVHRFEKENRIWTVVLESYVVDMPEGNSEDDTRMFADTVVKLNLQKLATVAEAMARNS

ZjPYL2 with AtHAB1 = target: T3, ZjPYL2 with AtHAB1 (Zoysia japonica, UniProt A0A2D1UXP2); assay: AlphaScreen, ABA-dependent receptor-PP2C interaction; type: binding
T3 construct: H6-SUMO-ZjPYL2 and biotin-MBP-AtHAB1 (172-511), E. coli; tags kept; with Protein phosphatase 2C 16 (HAB1, Arabidopsis thaliana)
T3 sequence (A0A2D1UXP2 1-216): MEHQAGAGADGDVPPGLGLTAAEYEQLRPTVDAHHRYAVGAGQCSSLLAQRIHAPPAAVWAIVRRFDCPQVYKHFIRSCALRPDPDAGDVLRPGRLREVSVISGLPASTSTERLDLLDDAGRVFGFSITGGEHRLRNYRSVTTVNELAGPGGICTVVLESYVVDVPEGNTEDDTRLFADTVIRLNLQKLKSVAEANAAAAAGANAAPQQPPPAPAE
T3 sequence (Q9CAJ0 172-511 partner): T1 sequence (Q9CAJ0 172-511 partner)
Excerpt: AlphaScreen, ABA-dependent receptor-PP2C interaction on ZjPYL2 with AtHAB1 | EC50 values of FePYL1, FePYR1, ZjPYL2 in interacting with AtHAB1

FePYL1 with AtHAB1 = target: T4, FePYL1 with AtHAB1 (Festuca elata, UniProt A0A2D1UXN6); assay: as above; type: binding
T4 construct: H6-SUMO-FePYL1 and biotin-MBP-AtHAB1 (172-511), E. coli; tags kept; with Protein phosphatase 2C 16 (HAB1, Arabidopsis thaliana)
T4 sequence (A0A2D1UXN6 1-204): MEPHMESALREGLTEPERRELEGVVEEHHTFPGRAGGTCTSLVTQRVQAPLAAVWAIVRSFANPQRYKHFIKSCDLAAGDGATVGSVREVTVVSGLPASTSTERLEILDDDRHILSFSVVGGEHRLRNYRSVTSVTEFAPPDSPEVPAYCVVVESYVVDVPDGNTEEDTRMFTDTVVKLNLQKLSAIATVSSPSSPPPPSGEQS
T4 sequence (Q9CAJ0 172-511 partner): T1 sequence (Q9CAJ0 172-511 partner)
Excerpt: AlphaScreen, ABA-dependent receptor-PP2C interaction on FePYL1 with AtHAB1 | EC50 values of FePYL1, FePYR1, ZjPYL2 in interacting with AtHAB1

AtPYR1 with AtHAB1 = target: T5, AtPYR1 with AtHAB1 (Arabidopsis thaliana, UniProt O49686); assay: as above; type: binding
T5 construct: gene PYR1; H6-SUMO-AtPYR1 (9-182) and biotin-MBP-AtHAB1 (172-511), E. coli; tags kept; with Protein phosphatase 2C 16
T5 sequence (O49686 9-182): T2 sequence (O49686 9-182)
T5 sequence (Q9CAJ0 172-511 partner): T1 sequence (Q9CAJ0 172-511 partner)

[1] = target: the molecule itself; assay: SEC; HPLC size-exclusion column chromatography with or without (+)-ABA; 43 kD protein marker
[2] = target: T6, biotin-MBP-tagged AtHAB1 (residues 172-511), Q9CAJ0; assay: AlphaScreen; conditions: chain shown with the change, read off a plot
T6 chain: T1 sequence (Q9CAJ0 172-511 partner)

[3] = ABA (10 μM), parent: est. 12000
[4] = ABA (100 μM), parent: est. 8400
[5] = DMSO (no ABA), parent: est. 2200

B1: AtPYR1 (size-exclusion chromatography, with or without ABA) (receptor, Arabidopsis, UniProt O49686 9-182, looked up)
chain: T2 sequence (O49686 9-182)
notes: Arabidopsis ABA receptor PYR1; also called AtPYR1-apo; source: E. coli, purified
- stoichiometry N [1]: 2

B2: H6-SUMO-tagged FePYR1 E131A (protein)
chain: T1 sequence (A0A2D1UXN2 1-212) with E131A
- response (photon counts) ([2]; ABA (2 μM), parent: est. 6900): 4100
- response (photon counts) [2, 3]: 8000
- response (photon counts) [2, 4]: 7500

B3: H6-SUMO-tagged FePYR1 E131D (protein)
chain: T1 sequence (A0A2D1UXN2 1-212) with E131D
- response (photon counts) ([2]; ABA (5 μM), parent: est. 17000): 18000
- response (photon counts) [2, 5]: 1900

B4: H6-SUMO-tagged FePYR1 R133A (protein)
chain: T1 sequence (A0A2D1UXN2 1-212) with R133A
- response (photon counts) ([2]; ABA (2 μM), parent: est. 6900): 600
- response (photon counts) [2, 3]: 2300
- response (photon counts) [2, 4]: 3900

B5: H6-SUMO-tagged FePYR1 I75V (protein)
chain: T1 sequence (A0A2D1UXN2 1-212) with I75V
- response (photon counts) ([2]; ABA (5 μM), parent: est. 17000): 16000
- response (photon counts) [2, 5]: 2100

B8: H6-SUMO-tagged FePYR1 L104A (protein)
chain: T1 sequence (A0A2D1UXN2 1-212) with L104A
- response (photon counts) [2, 4]: 2500

B9: H6-SUMO-tagged FePYR1 I75A (protein)
chain: T1 sequence (A0A2D1UXN2 1-212) with I75A
- response (photon counts) ([2]; ABA (5 μM), parent: est. 17000): 9600
- response (photon counts) [2, 5]: 2600

B12: H6-SUMO-tagged FePYR1 H73P (protein)
chain: T1 sequence (A0A2D1UXN2 1-212) with H73P
- response (photon counts) ([2]; ABA (5 μM), parent: est. 17000): 15000
- response (photon counts) [2, 5]: 2000

B13: H6-SUMO-tagged FePYR1 K72R (protein)
chain: T1 sequence (A0A2D1UXN2 1-212) with K72R
- response (photon counts) [2, 4]: 1300

B14: H6-SUMO-tagged FePYR1 N186A (protein)
chain: T1 sequence (A0A2D1UXN2 1-212) with N186A
- response (photon counts) ([2]; ABA (2 μM), parent: est. 6900): 1200
- response (photon counts) [2, 3]: 3900
- response (photon counts) [2, 4]: 5800

B18: H6-SUMO-tagged FePYR1 V182L (protein)
chain: T1 sequence (A0A2D1UXN2 1-212) with V182L
- response (photon counts) ([2]; ABA (5 μM), parent: est. 17000): 3300
- response (photon counts) [2, 5]: 2000

B19: H6-SUMO-tagged FePYR1 L185A (protein)
chain: T1 sequence (A0A2D1UXN2 1-212) with L185A
- response (photon counts) ([2]; ABA (5 μM), parent: est. 17000): 18000
- response (photon counts) [2, 5]: 2300

B22: H6-SUMO-tagged FePYR1 K72A (protein)
chain: T1 sequence (A0A2D1UXN2 1-212) with K72A
- response (photon counts) [2, 4]: 1200

B24: H6-SUMO-tagged FePYR1 L185C (protein)
chain: T1 sequence (A0A2D1UXN2 1-212) with L185C
- response (photon counts) ([2]; ABA (5 μM), parent: est. 17000): 16000
- response (photon counts) [2, 5]: 2200

The next lines start with results.

- EC50 (FePYR1-ABA-AtHAB1): 2.3 µM
- EC50 (ZjPYL2 with AtHAB1): 3.73 µM
- EC50 (FePYL1 with AtHAB1): 0.671 µM
- EC50 (AtPYR1 with AtHAB1): 7.36 µM
Molecule: CC1=CC(=O)CC(C)(C)C1(O)/C=C/C(C)=C\C(=O)O (stereo in doubt) [(+)-ABA]
- ABA binding assay in supplement (method not given) (AtPYR1): the binding affinity with ABA ... are comparable between these two ABA receptors

- response (photon counts) ([2]; ABA (2 μM), parent: est. 6900): 1400
- response (photon counts) [2, 3]: 3300
- response (photon counts) [2, 4]: 5700
B6: H6-SUMO-tagged FePYR1 P105A (protein)
chain: T1 sequence (A0A2D1UXN2 1-212) with P105A

- response (photon counts) ([2]; ABA (2 μM), parent: est. 6900): 750
- response (photon counts) [2, 3]: 3000
- response (photon counts) [2, 4]: 5800
B7: H6-SUMO-tagged FePYR1 S102A (protein)
chain: T1 sequence (A0A2D1UXN2 1-212) with S102A

- response (photon counts) [2, 4]: 2500
B10: H6-SUMO-tagged FePYR1 F178A (protein)
chain: T1 sequence (A0A2D1UXN2 1-212) with F178A

- response (photon counts) [2, 4]: 2100
B11: H6-SUMO-tagged FePYR1 A106S (protein)
chain: T1 sequence (A0A2D1UXN2 1-212) with A106S

- response (photon counts) ([2]; ABA (2 μM), parent: est. 6900): 700
- response (photon counts) [2, 3]: 1800
- response (photon counts) [2, 4]: 2800
B15: H6-SUMO-tagged FePYR1 G103A (protein)
chain: T1 sequence (A0A2D1UXN2 1-212) with G103A

- response (photon counts) [2, 4]: 650
B16: H6-SUMO-tagged FePYR1 H132A (protein)
chain: T1 sequence (A0A2D1UXN2 1-212) with H132A

- response (photon counts) ([2]; ABA (2 μM), parent: est. 6900): 2600
- response (photon counts) [2, 3]: 4900
- response (photon counts) [2, 4]: 9000
B17: H6-SUMO-tagged FePYR1 E160A (protein)
chain: T1 sequence (A0A2D1UXN2 1-212) with E160A

- response (photon counts) [2, 4]: 800
B20: H6-SUMO-tagged FePYR1 E111A (protein)
chain: T1 sequence (A0A2D1UXN2 1-212) with E111A

- response (photon counts) ([2]; ABA (5 μM), parent: est. 17000): 9500
- response (photon counts) [2, 5]: 2100
B21: H6-SUMO-tagged FePYR1 I127A (protein)
chain: T1 sequence (A0A2D1UXN2 1-212) with I127A

- response (photon counts) ([2]; ABA (5 μM), parent: est. 17000): 17000
- response (photon counts) [2, 5]: 2200
B23: H6-SUMO-tagged FePYR1 I127V (protein)
chain: T1 sequence (A0A2D1UXN2 1-212) with I127V
